Assay in all cases: cleavage_in_vitro
The subject of series [1] is T1, SphI (Streptomyces phaeochromogenes).
T1 sequence: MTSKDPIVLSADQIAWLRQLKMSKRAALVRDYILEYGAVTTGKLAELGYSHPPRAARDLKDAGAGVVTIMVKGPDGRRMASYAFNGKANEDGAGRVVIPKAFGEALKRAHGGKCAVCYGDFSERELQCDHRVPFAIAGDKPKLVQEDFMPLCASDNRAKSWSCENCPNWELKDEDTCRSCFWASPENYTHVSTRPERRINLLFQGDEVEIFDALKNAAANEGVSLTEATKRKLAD
The following applies: NEB4, 37 C, Mg2+; FI NEB1-3: 64, 32, 64.

Series [2] relates to BstXI-HF N65A (Bacillus stearothermophilus). The following applies: NEB4, 55 C, Mg2+; FI NEB1-3: >=120, >=250, >=16.
Series [3] concerns the target T2, HpaI (Haemophilus parainfluenzae) (UniProt P29537).
T2 sequence: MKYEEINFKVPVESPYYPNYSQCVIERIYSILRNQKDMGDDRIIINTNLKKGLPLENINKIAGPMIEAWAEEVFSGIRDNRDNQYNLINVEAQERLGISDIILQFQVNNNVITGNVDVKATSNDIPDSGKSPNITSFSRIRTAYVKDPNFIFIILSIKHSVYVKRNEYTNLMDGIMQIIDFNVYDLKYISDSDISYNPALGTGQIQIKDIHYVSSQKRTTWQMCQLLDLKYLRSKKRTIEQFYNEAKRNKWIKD
The following applies: NEB4, 37 C, Mg2+; FI NEB1-3: 32, 1, 2.

For series [4], the system named is T3, SapI (Saccharopolyspora sp.).
T3 sequence: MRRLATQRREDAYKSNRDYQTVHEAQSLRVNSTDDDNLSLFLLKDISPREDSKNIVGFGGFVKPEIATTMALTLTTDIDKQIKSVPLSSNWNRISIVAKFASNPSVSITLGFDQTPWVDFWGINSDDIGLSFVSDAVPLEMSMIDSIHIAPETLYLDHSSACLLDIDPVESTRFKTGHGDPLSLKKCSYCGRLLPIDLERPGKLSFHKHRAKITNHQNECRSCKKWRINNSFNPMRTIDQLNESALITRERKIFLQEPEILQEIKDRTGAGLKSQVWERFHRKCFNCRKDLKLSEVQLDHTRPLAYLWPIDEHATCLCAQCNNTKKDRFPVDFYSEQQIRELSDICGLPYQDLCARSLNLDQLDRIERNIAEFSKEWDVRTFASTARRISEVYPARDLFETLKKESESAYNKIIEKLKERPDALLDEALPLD
The following applies: NEB4, 37 C, Mg2+; FI NEB1-3: 16, 64, 32.

The target in series [5] is T4, BamHI-HF E163A/E167T (Bacillus amyloliquefaciens) (UniProt P23940).
T4 sequence: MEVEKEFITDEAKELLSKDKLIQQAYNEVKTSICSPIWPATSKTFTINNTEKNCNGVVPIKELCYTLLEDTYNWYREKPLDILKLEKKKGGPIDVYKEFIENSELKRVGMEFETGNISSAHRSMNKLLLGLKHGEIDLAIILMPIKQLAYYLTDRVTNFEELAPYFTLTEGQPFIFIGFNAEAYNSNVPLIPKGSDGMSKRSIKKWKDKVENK
The following applies: NEB4, 37 C, Mg2+; FI NEB1-3: >=4000, >=4000, >=250.

Series [6] concerns T5, NcoI (Nocardia corallina).
T5 sequence: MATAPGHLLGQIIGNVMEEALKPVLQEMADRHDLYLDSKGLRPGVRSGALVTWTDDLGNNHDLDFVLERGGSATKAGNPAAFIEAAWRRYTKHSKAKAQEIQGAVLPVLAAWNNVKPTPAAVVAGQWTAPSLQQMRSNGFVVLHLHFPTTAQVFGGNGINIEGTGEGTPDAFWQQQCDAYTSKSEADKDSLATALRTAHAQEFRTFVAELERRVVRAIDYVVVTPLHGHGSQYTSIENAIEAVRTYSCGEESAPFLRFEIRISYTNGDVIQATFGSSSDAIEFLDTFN
The following applies: NEB4, 37 C, Mg2+; FI NEB1-3: 120, 32, 120.

Some results are limits rather than exact numbers.

Regarding lambda phage DNA, the activity (fidelity index) in series [1] was 16; in series [2] it was greater than 250; in series [3], 16; in series [4] it was 16; in series [5], greater than 4000; in series [6] it was 32.

These data come from patent publication US20130115678.
